Test results published in patent US20140087995A1 (published 2014).
Numbered stars: 1 amine (or outer) side, 2 acyl side, 3 side chain; on linkers, the order of the positions; unused ones are H or OH. Bridge positions count the residues as written; N and C are the ends. Side chains are listed from the residue outwards. Ends that are not written are not given here. * marks the point of attachment. C20 diacid = O=C(O)CCCCCCCCCCCCCCCCCCC(=O)*; γGlu = O=C(O)[C@H](CCC(=O)[*:2])N[*:1]; AEEA = NCCOCCOCC(=O)O

Legend:
rat calcitonin receptor [1] = molecular target: T1, rat calcitonin receptor (rat, UniProt P32214 25-516); test: ratio of binding IC50s: rat calcitonin receptor over rat amylin receptor (reference)
T1 construct: whole, on cells; also called rCTR; rat calcitonin (a) receptor
T1 sequence (looked up): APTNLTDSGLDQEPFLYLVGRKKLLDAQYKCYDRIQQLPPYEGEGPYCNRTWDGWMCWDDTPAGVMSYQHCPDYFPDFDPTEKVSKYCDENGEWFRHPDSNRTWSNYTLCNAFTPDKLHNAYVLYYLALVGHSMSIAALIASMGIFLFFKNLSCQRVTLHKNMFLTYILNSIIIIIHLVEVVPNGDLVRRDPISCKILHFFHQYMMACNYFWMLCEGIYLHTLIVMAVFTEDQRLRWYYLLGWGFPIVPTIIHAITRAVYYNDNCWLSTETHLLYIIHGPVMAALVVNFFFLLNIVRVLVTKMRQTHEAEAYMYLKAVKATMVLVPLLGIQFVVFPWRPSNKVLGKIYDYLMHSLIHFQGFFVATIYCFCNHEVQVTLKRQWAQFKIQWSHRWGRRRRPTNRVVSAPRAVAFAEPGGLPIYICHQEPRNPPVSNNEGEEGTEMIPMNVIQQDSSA

[2] = molecular target: T2, human calcitonin receptor (human, UniProt P30988 25-474); test: ratio of binding IC50s: human calcitonin receptor over human amylin receptor (reference)
T2 construct: whole, on cells; also called hCTR; hCT
T2 sequence (looked up): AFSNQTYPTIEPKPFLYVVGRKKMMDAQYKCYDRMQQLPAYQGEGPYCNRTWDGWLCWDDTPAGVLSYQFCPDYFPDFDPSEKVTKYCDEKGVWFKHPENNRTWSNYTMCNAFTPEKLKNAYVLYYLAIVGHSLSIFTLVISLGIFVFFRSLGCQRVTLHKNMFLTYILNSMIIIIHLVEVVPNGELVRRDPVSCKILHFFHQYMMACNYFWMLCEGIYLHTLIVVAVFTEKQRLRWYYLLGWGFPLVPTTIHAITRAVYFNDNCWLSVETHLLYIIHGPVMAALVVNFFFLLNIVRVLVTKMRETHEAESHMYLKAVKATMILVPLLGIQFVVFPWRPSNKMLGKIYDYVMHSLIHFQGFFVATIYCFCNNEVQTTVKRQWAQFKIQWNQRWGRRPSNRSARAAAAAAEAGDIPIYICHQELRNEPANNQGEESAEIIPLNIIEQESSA
Summary of the method: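 Scintillation proximity competition binding on cell membranes at 35 ng/μL with SPA beads, in 50 mM Hepes pH 7.4, 1 mM CaCl2, 5 mM MgCl₂, 0.1% OA, 0.02% Tween20. Incubated 120 min at 25° C with shaking. IC₅₀ from one-site competition fit.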

rat calcitonin receptor [3] = molecular target: T1, rat calcitonin receptor; test: SPA competition with 125I-calcitonin, membranes of BHK cells with rat calcitonin receptor (Assay VIII)
[4] = molecular target: T3, rat amylin receptor (rat calcitonin receptor + rat RAMP 3) (rat, UniProt P32214 25-516; Q9JJ73 23-147); test: SPA competition with 125I-rat amylin, membranes of BHK cells with rat calcitonin receptor + rat RAMP3 (Assay VI)
T3 construct: whole, on cells; also called rAmylin-R; rat amylin 3(a) receptor
T3 sequence (looked up) 1: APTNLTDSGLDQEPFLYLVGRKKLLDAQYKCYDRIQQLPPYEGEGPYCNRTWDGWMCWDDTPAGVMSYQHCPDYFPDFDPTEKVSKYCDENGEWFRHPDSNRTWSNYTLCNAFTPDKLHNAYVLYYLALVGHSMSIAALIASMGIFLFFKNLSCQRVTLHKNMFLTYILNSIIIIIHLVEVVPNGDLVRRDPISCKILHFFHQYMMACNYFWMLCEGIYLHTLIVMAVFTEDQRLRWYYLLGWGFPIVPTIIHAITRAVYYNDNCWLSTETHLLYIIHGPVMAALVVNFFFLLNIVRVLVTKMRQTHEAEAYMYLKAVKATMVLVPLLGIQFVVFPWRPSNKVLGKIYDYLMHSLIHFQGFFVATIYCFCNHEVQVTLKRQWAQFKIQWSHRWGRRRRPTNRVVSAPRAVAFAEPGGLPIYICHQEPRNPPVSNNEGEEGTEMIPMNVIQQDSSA
T3 sequence (looked up) 2: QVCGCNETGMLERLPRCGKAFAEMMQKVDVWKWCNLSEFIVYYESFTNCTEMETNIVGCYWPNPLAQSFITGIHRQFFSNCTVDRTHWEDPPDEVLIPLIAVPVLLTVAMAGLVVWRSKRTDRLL

| Binder | Ratio rCT/rAmylin binding (rat calcitonin receptor [1]) | Ratio hCT/hAmylin binding [2] | IC50 (rat calcitonin receptor [3]) | IC50 [4] |
| --- | --- | --- | --- | --- |
| K([AEEA-γGlu-C20 diacid])CNTATCATQRLAGFLRHSSPNFGAIPSSTPVGSNTY-NH2 (disulfide 2-7; N-terminus assumed; SMILES CC[C@H](C)[C@H](NC(=O)[C@H](C)NC(=O)CNC(=O)[C@H](Cc1ccccc1)NC(=O)[C@H](CC(N)=O)NC(=O)[C@@H]1CCCN1C(=O)[C@H](CO)NC(=O)[C@H](CO)NC(=O)[C@H](Cc1c[nH]cn1)NC(=O)[C@H](CCCNC(=N)N)NC(=O)[C@H](CC(C)C)NC(=O)[C@H](Cc1ccccc1)NC(=O)CNC(=O)[C@H](C)NC(=O)[C@H](CC(C)C)NC(=O)[C@H](CCCNC(=N)N)NC(=O)[C@H](CCC(N)=O)NC(=O)[C@@H](NC(=O)[C@H](C)NC(=O)[C@@H]1CSSC[C@H](NC(=O)[C@@H](N)CCCCNC(=O)COCCOCCNC(=O)CC[C@H](NC(=O)CCCCCCCCCCCCCCCCCCC(=O)O)C(=O)O)C(=O)N[C@@H](CC(N)=O)C(=O)N[C@@H]([C@@H](C)O)C(=O)N[C@@H](C)C(=O)N[C@@H]([C@@H](C)O)C(=O)N1)[C@@H](C)O)C(=O)N1CCC[C@H]1C(=O)N[C@@H](CO)C(=O)N[C@@H](CO)C(=O)N[C@H](C(=O)N1CCC[C@H]1C(=O)N[C@H](C(=O)NCC(=O)N[C@@H](CO)C(=O)N[C@@H](CC(N)=O)C(=O)N[C@H](C(=O)N[C@@H](Cc1ccc(O)cc1)C(N)=O)[C@@H](C)O)C(C)C)[C@@H](C)O, synthetic analogue of human amylin; also called compound 71) | 162 | 32 | 44.8 nM | 0.276 nM |
| K([AEEA-γGlu-C20 diacid])CNTATCATQRLAHFLRHSSPNFGAIPSSTNVGHNTY-NH2 (disulfide 2-7; N-terminus assumed; SMILES CC[C@H](C)[C@H](NC(=O)[C@H](C)NC(=O)CNC(=O)[C@H](Cc1ccccc1)NC(=O)[C@H](CC(N)=O)NC(=O)[C@@H]1CCCN1C(=O)[C@H](CO)NC(=O)[C@H](CO)NC(=O)[C@H](Cc1c[nH]cn1)NC(=O)[C@H](CCCNC(=N)N)NC(=O)[C@H](CC(C)C)NC(=O)[C@H](Cc1ccccc1)NC(=O)[C@H](Cc1c[nH]cn1)NC(=O)[C@H](C)NC(=O)[C@H](CC(C)C)NC(=O)[C@H](CCCNC(=N)N)NC(=O)[C@H](CCC(N)=O)NC(=O)[C@@H](NC(=O)[C@H](C)NC(=O)[C@@H]1CSSC[C@H](NC(=O)[C@@H](N)CCCCNC(=O)COCCOCCNC(=O)CC[C@H](NC(=O)CCCCCCCCCCCCCCCCCCC(=O)O)C(=O)O)C(=O)N[C@@H](CC(N)=O)C(=O)N[C@@H]([C@@H](C)O)C(=O)N[C@@H](C)C(=O)N[C@@H]([C@@H](C)O)C(=O)N1)[C@@H](C)O)C(=O)N1CCC[C@H]1C(=O)N[C@@H](CO)C(=O)N[C@@H](CO)C(=O)N[C@H](C(=O)N[C@@H](CC(N)=O)C(=O)N[C@H](C(=O)NCC(=O)N[C@@H](Cc1c[nH]cn1)C(=O)N[C@@H](CC(N)=O)C(=O)N[C@H](C(=O)N[C@@H](Cc1ccc(O)cc1)C(N)=O)[C@@H](C)O)C(C)C)[C@@H](C)O, synthetic analogue of human amylin; also called compound 80) | 36.2 | 68.1 | 60.4 nM | 1.67 nM |
| K([AEEA-γGlu-C20 diacid])CNTATCATQRLAHFLRHSSPNFGAIPSSTNVGRNTY-NH2 (disulfide 2-7; N-terminus assumed; SMILES CC[C@H](C)[C@H](NC(=O)[C@H](C)NC(=O)CNC(=O)[C@H](Cc1ccccc1)NC(=O)[C@H](CC(N)=O)NC(=O)[C@@H]1CCCN1C(=O)[C@H](CO)NC(=O)[C@H](CO)NC(=O)[C@H](Cc1c[nH]cn1)NC(=O)[C@H](CCCNC(=N)N)NC(=O)[C@H](CC(C)C)NC(=O)[C@H](Cc1ccccc1)NC(=O)[C@H](Cc1c[nH]cn1)NC(=O)[C@H](C)NC(=O)[C@H](CC(C)C)NC(=O)[C@H](CCCNC(=N)N)NC(=O)[C@H](CCC(N)=O)NC(=O)[C@@H](NC(=O)[C@H](C)NC(=O)[C@@H]1CSSC[C@H](NC(=O)[C@@H](N)CCCCNC(=O)COCCOCCNC(=O)CC[C@H](NC(=O)CCCCCCCCCCCCCCCCCCC(=O)O)C(=O)O)C(=O)N[C@@H](CC(N)=O)C(=O)N[C@@H]([C@@H](C)O)C(=O)N[C@@H](C)C(=O)N[C@@H]([C@@H](C)O)C(=O)N1)[C@@H](C)O)C(=O)N1CCC[C@H]1C(=O)N[C@@H](CO)C(=O)N[C@@H](CO)C(=O)N[C@H](C(=O)N[C@@H](CC(N)=O)C(=O)N[C@H](C(=O)NCC(=O)N[C@@H](CCCNC(=N)N)C(=O)N[C@@H](CC(N)=O)C(=O)N[C@H](C(=O)N[C@@H](Cc1ccc(O)cc1)C(N)=O)[C@@H](C)O)C(C)C)[C@@H](C)O, synthetic analogue of human amylin; also called compound 84) | 94.3 | 120 | 477 nM | 5.05 nM |
| K([AEEA-γGlu-C20 diacid])CNTATCATQRLAHFLRHSSPNFGAIPSSTPVGSNTY-NH2 (disulfide 2-7; N-terminus assumed; SMILES CC[C@H](C)[C@H](NC(=O)[C@H](C)NC(=O)CNC(=O)[C@H](Cc1ccccc1)NC(=O)[C@H](CC(N)=O)NC(=O)[C@@H]1CCCN1C(=O)[C@H](CO)NC(=O)[C@H](CO)NC(=O)[C@H](Cc1c[nH]cn1)NC(=O)[C@H](CCCNC(=N)N)NC(=O)[C@H](CC(C)C)NC(=O)[C@H](Cc1ccccc1)NC(=O)[C@H](Cc1c[nH]cn1)NC(=O)[C@H](C)NC(=O)[C@H](CC(C)C)NC(=O)[C@H](CCCNC(=N)N)NC(=O)[C@H](CCC(N)=O)NC(=O)[C@@H](NC(=O)[C@H](C)NC(=O)[C@@H]1CSSC[C@H](NC(=O)[C@@H](N)CCCCNC(=O)COCCOCCNC(=O)CC[C@H](NC(=O)CCCCCCCCCCCCCCCCCCC(=O)O)C(=O)O)C(=O)N[C@@H](CC(N)=O)C(=O)N[C@@H]([C@@H](C)O)C(=O)N[C@@H](C)C(=O)N[C@@H]([C@@H](C)O)C(=O)N1)[C@@H](C)O)C(=O)N1CCC[C@H]1C(=O)N[C@@H](CO)C(=O)N[C@@H](CO)C(=O)N[C@H](C(=O)N1CCC[C@H]1C(=O)N[C@H](C(=O)NCC(=O)N[C@@H](CO)C(=O)N[C@@H](CC(N)=O)C(=O)N[C@H](C(=O)N[C@@H](Cc1ccc(O)cc1)C(N)=O)[C@@H](C)O)C(C)C)[C@@H](C)O, synthetic analogue of human amylin; also called compound 61) | 39.7 | 66.7 | 33.4 nM | 0.842 nM |
